One block for each binder: values may come before it.
B1: DISC1 322-852 (predicted helical region of DISC1) (domain or fragment, UniProt Q811T9-1 322-852, looked up)
chain: ADAHGWHTLLREWEPMLQDYLLSNRRQLEVTSLILKLQKCQEKVVEDGDYDTAETLRQRLEELEQEKGRLSWALPSQQPALRSFLGYLAAQIQVALHGATQRAGSDDPEAPLEGQLRTTAQDSLPASITRRDWLIREKQRLQKEIEALQARMSALEAKEKRLSQELEEQEVLLRWPGCDLMALVAQMSPGQLQEVSKALGETLTSANQAPFQVEPPETLRSLRERTKSLNLAVRELTAQVCSGEKLCSSLRRRLSDLDTRLPALLEAKMLALSGSCFSTAKELTEEIWALSSEREGLEMFLGRLLALSSRNSRRLGIVKEDHLRCRQDLALQDAAHKTRMKANTVKCMEVLEGQLSSCRCPLLGRVWKADLETCQLLMQSLQLQEAGSSPHAEDEEQVHSTGEAAQTAALAVPRTPHPEEEKSPLQVLQEWDTHSALSPHCAAGPWKEDSHIVSAEVGEKCEAIGVKLLHLEDQLLGAMYSHDEALFQSLQGELQTVKETLQAMILQLQPTKEAGEASASYPTAGAQETEA
B4: ATF4 leucine zipper domain (residues 314-349) (domain or fragment, UniProt Q06507 314-349, looked up)
chain: KNEALKEKADSLAKEIQYLKDLIEEVRKARGKKRVP

How the values were obtained:
[1] = target: B4; assay: ITC
[2] = target: T1, ATF4 278-349 (basic region + leucine zipper) (UniProt Q06507 278-349); assay: ITC
T1 sequence: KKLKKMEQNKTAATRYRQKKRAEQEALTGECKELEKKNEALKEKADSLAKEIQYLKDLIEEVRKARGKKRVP

[3] = target: C/EBPα (UniProt P53566 1-359); assay: ITC
[4] = target: C/EBPζ (CHOP) (UniProt P35639 1-168); assay: ITC
[5] = target: B1; assay: ITC
[6] = target: the molecule itself; assay: SEC-MALS

Chain of C/EBPζ (CHOP) (P35639 whole entry): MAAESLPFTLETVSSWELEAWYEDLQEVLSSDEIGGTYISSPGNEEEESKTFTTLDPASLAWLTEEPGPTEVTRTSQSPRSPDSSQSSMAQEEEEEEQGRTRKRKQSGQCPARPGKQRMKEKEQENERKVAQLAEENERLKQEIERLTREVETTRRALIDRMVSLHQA
Chain of C/EBPα (P53566 whole entry): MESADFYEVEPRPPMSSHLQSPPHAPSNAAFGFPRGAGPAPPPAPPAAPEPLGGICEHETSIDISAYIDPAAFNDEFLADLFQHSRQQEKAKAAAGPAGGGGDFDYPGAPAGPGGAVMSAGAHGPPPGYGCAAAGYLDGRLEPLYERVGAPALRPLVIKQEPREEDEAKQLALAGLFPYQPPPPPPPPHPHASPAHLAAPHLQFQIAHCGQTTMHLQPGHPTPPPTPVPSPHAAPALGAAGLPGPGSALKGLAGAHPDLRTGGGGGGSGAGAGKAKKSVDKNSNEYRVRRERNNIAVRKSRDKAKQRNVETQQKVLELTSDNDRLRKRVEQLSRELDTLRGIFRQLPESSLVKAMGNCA

Binder: B1
stoichiometry N [1]: 1

B2: CRE dsDNA (dsDNA)
DNA 1: GCAGATGACGTCATCTGC
DNA 2: GCAGATGACGTCATCTGC
Kd [2]: ~12 nM

Kd [3]: ~11000 nM
fold weaker than the DISC1/ATF4 interaction [4]: ~2000 fold
B3: DISC1-CC (coiled coil, residues 765-835) (domain or fragment, UniProt Q811T9-1 765-835, looked up)
chain: GPWKEDSHIVSAEVGEKCEAIGVKLLHLEDQLLGAMYSHDEALFQSLQGELQTVKETLQAMILQLQPTKEA

Binder: B4
Kd [5]: ~14 nM

Binder: KNEALKEKADSLAKEIQYLKDLIEEVRKARGKKRVP (domain or fragment, UniProt Q06507 314-349, looked up) [trx tagged-ATF4-LZ]
stoichiometry N [6]: 2
